PMC6561178, “Caulobacter crescentus Hfq structure reveals a conserved mechanism of RNA annealing regulation”

T1: Cc78 (Caulobacter crescentus NA1000, UniProt B8GW92 1-78, del79-82)
T1 sequence: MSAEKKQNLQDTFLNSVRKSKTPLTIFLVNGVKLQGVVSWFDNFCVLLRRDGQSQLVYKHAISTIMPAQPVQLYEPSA

B1: R157 (structured_RNA)
RNA: GGUGAGGCGCCGAGCGCCUCUGCCCUUCCUGGGCGUUUCCUCCCUAUGACUUUGUAGCCCGGUCUUCAUGGCCGGGCUUUCUUUUU
B2: ChvR (structured_RNA)
RNA: GGCGGGGCCUACAUGUCGCGCAAGUCUCCGGAGGGCCAUUCCGAGGCGGGGCCCGCUCCAGCGUCCUCAUUGGAGCGGGCGUCU

Columns and labels:
[1] = molecular target: T2, Ec65 (Escherichia coli, UniProt P0A6X3 1-65, del66-102); assay: EMSA; Hill n 1.0; EMSA: 34 mM Tris-HCl pH 7.5, 50 mM NaCl, 50 mM KCl, 50 mM NH4Cl, 11.4 mM EDTA, 12% glycerol, 30 C, 30 min, ~1 nM 32P-RNA, Kd in Hfq6; anisotropy: 10 mM Tris-HCl; conditions: protein: recombinant; tags: untagged; chain copies: 6; label: 32P; stem-loops
[2] = molecular target: T1, Cc78; assay: EMSA; Hill n 1.3; EMSA: 34 mM Tris-HCl pH 7.5, 50 mM NaCl, 50 mM KCl, 50 mM NH4Cl, 11.4 mM EDTA, 12% glycerol, 30 C, 30 min, ~1 nM 32P-RNA, Kd in Hfq6; anisotropy: 10 mM Tris-HCl; conditions: protein: recombinant; tags: untagged after self-cleaved intein; chain copies: 6; label: 32P; stem-loops
[3] = molecular target: T3, EcCc Hfq (Escherichia coli / Caulobacter …, UniProt P0A6X3 1-67+B8GW92:71-82, internal_change); assay: EMSA; Hill n 5.1; EMSA: 34 mM Tris-HCl pH 7.5, 50 mM NaCl, 50 mM KCl, 50 mM NH4Cl, 11.4 mM EDTA, 12% glycerol, 30 C, 30 min, ~1 nM 32P-RNA, Kd in Hfq6; anisotropy: 10 mM Tris-HCl; conditions: protein: recombinant; tags: untagged; chain copies: 6; label: 32P; stem-loops
[4] = molecular target: T4, Ec Hfq (Hfq102) (Escherichia coli, UniProt P0A6X3 1-102); assay: EMSA; Hill n 8.2; Tris-glycine gel; EMSA: 34 mM Tris-HCl pH 7.5, 50 mM NaCl, 50 mM KCl, 50 mM NH4Cl, 11.4 mM EDTA, 12% glycerol, 30 C, 30 min, ~1 nM 32P-RNA, Kd in Hfq6; anisotropy: 10 mM Tris-HCl; conditions: protein: recombinant; tags: untagged; chain copies: 6; label: 32P; stem-loops
[5] = molecular target: T1, Cc78; assay: EMSA; Hill n 1.4; EMSA: 34 mM Tris-HCl pH 7.5, 50 mM NaCl, 50 mM KCl, 50 mM NH4Cl, 11.4 mM EDTA, 12% glycerol, 30 C, 30 min, ~1 nM 32P-RNA, Kd in Hfq6; anisotropy: 10 mM Tris-HCl; conditions: protein: recombinant; tags: untagged after self-cleaved intein; chain copies: 6; label: 32P; stem-loops
[6] = molecular target: T3, EcCc Hfq; assay: EMSA; Hill n 1.6; EMSA: 34 mM Tris-HCl pH 7.5, 50 mM NaCl, 50 mM KCl, 50 mM NH4Cl, 11.4 mM EDTA, 12% glycerol, 30 C, 30 min, ~1 nM 32P-RNA, Kd in Hfq6; anisotropy: 10 mM Tris-HCl; conditions: protein: recombinant; tags: untagged; chain copies: 6; label: 32P; stem-loops
[7] = molecular target: T2, Ec65; assay: as above; conditions: protein: recombinant; tags: untagged; chain copies: 6; label: 32P; stem-loops
[8] = molecular target: T4, Ec Hfq (Hfq102); assay: EMSA; Hill n 1.0; Tris-glycine gel; EMSA: 34 mM Tris-HCl pH 7.5, 50 mM NaCl, 50 mM KCl, 50 mM NH4Cl, 11.4 mM EDTA, 12% glycerol, 30 C, 30 min, ~1 nM 32P-RNA, Kd in Hfq6; anisotropy: 10 mM Tris-HCl; conditions: protein: recombinant; tags: untagged; chain copies: 6; label: 32P; stem-loops

| Binder | Kd [1] [nM] | Kd [2] [nM] | Kd [3] [nM] | Kd [4] [nM] | Kd [5] [nM] | Kd [6] [nM] | Kd [7] [nM] | Kd [8] [nM] |
| --- | --- | --- | --- | --- | --- | --- | --- | --- |
| B1 | 6.3 ± 1.1 | 349 ± 7 | 55.7 ± 2.7 | 14.3 ± 0.1 |  |  |  |  |
| B2 |  |  |  |  | 256 ± 25 | 228 ± 84 | 20.2 ± 0.3 | 17.2 ± 1 |
